Reference: PMC11389850

Molecular target: BbmrR (Brevibacillus borstelensis)
Experiment: SEC; analytical size-exclusion chromatography, Superdex 200 10/300, 50 mM phosphate buffer, 500 mM NaCl, pH 7.5, 100 uL sample injected; column calibrated with LMW/HMW gel-filtration kits

BbmrR (natural protein)
stoichiometry N: 2
